Ends that are not written are not given here. Peptide text beside a SMILES is read from it. * marks the point of attachment. Biotin = O=C1N[C@H]2[C@H](CS[C@H]2CCCCC(=O)*)N1
How the values were obtained:
GRP78 (bovine brain) = molecular target: T1, GRP78 (bovine brain) (Bos taurus, UniProt Q0VCX2); test: Ultracentrifugation binding of I125rK5(dog) with GRP78; settings: 1 nM I125rK5(dog) + 1.5 nM GRP78; peptides 100 nM, rK5 1 nM
T1 construct: from tissue; host or cells: bovine brain
Protocol: Ultra centrifugation with 50,000 MW cut off filters was used with iodinated recombinant dog K5 (I^125rKS(dog)) and GRP78 (bovine brain). The GRP78 and I^125rK5 (dog) were incubated for 1 hour at room temperature. The solution was then transferred to ultracentrifuges and spun at 10,000×g for 2 min. The top chamber contained GRP78 (mw 78,000) and I^125rK5 (dog) that bound. The top and bottom solutions were counted for I125. Column A: 1 nM I^125rK5(dog). Column B: 1 nM I^125rK5 (dog)+1.5 nM GRP78. Column C: 1 nM I^125rK5(dog)+1.5 nM GRP78+100 nM N-terminal K5 peptide, LLPDVETPSEED. Column D: 1 nM I^125rK5(dog)+1.5 nM GRP78±100 nM active site K5 peptide PRKLYDY. Column E: 1 nM I^125rK5(dog)+1.5 nM GRP78+1 nM rK5 (unlabeled). The GRP78 bound to the labeled rK5 causing its retention on the top of the filter.

[1] = tested on: EAHY cell surface proteins (~75 kDa and ~95 kDa); test: S-tag-K5 affinity pull-down of biotinylated EAHY surface proteins; assay type: binding; settings: 100 nM S-tag-K5; 1 μM peptides, 10 μM cold rK5
Protocol: The second method used to identify cell surface rK5 binding proteins was described previously (Zhang, J. C., et al, supra). Surface proteins on 4×10^6 EaHy cells were labeled with NHS-biotin. The cells were washed and lysed (M-Per, Pierce). Cell lysates were mixed with S-tag K5 for 1 hour at room temperature. S-tag K5 bound proteins were precipitated with S-protein agarose (Pierce). Bound proteins were eluted with excess rK5 or with excess PRKLYDY (SEQ ID NO:1) peptide. Eluted proteins were visualized with avidin-HRP and a chemiluminescent substrate. Mass spectroscopic analysis was used to identify the major protein bands.
In particular, surface proteins on 1×10^6 EAHY cells were labeled with NHS-biotin. The cells were washed 3× with PBS and lysed with M-pur. Cell lysates were mixed with (A) 100 nM S-tag-K5, (B) 100 nM S-tag-K5 plus 1 μM PRKLYDY, (C) 100 nM S-tag-K5 plus 10 μM cold rK5 and (D) 100 nM S-tag-K5 and N-terminal K5 peptide at 1 μM for 1 hour at room temperature. The K5 binding proteins were precipitated with S-protein-agarose. Bound proteins were eluted with 50 mM glycine buffer at pH 3.0 and run for PAGE analysis. Surface proteins (biotinylated) that bind K5 were visualized with avidin-HPR and a chemiluminescent substrate.

HMVECs = test: Competition of 3HK5 binding to endothelial cells; design: species or system human; settings: 2 nM 3HK5; rK5(K82A) up to 500 nM
Protocol: Each K5 peptide or a N-terminal antibody to GRP78 was added to HMVECs at various concentrations for 1 hour at room temperature. Cells were washed and the amount of ^3HK5 bound was counted.
Binding of human ^125IrK5 to Endothelial Cells: Tritium-labeled rK5 was added to monolayers of 50,000 HMVEC cells that were either starved or stimulated for 16 hours by 15 ng/ml bFGF and 5 ng/ml VEGF in 96 well plates. The number of counts remaining bound to the cells after extensive washing determined total amount of rK5 bound (Dudani A K, Ganz P R. Endothelial cell surface actin serves as a binding site for plasminogen, tissue plasminogen activator and lipoprotein(a). Br J Haematol. 1996 October; 95(1): 168-78). Binding of ^125IK5 (dog) to Endothelial Cells and rK5 to Recombinant GRP78: The same methods as described above for the expression and purification of human K5 were used to express dog rK5 in E. coli. ^125IK5 (dog) was added to the wells and incubated at room temperature for 1 hour. After 1 hour the cells were washed and lysed with M-Per (Pierce, Racine, Wis.) and the amount of ^125IK5 (dog) bound was counted. Scatchard plot analysis was performed using Prism (GraphPad Software, Inc., San Diego, Calif.) software. Competition binding against 5 nM ^125IK5 (dog) was tested using a monoclonal antibody against GRP78 (N-20, Santa Cruz, Calif.) or a monoclonal antibody against K5 (Green Mountain Antibodies, Burlington, Vt.). The antibodies were added to HMVECs at various concentrations for 1 hour at room temperature. Cells were washed and the amount of bound ^125IK5 (dog) bound was counted. Competition binding was also tested against 2 nM 3HK5. K5 peptides or a c-terminal antibody to GRP78 (A-129, Santa Cruz, Calif.) were added to HMVECs at various concentrations for 1 hour at room temperature. Cells were washed, lysed and the amount of ^3HK5 bound was estimated by scintillation counting.

HMVEC = HMVEC (Homo sapiens, UniProt P11021); test: VEGF-stimulated HMVEC migration (Boyden chamber); assay type: cell-based; settings: for IC50: read-out: IC50 values, inhibition of VEGF stimulation HMVEC migration, 3 ng/ml VEGF, 4 hours at 37° C., 48 well Boyden chamber; for inhibition of migration of activated endothelial cells (in words): compared to rK5
Protocol: Endothelial cell migration assays: The effect of rK5 on endothelial cell migration was determined by two different methods. The first assay was performed in a 96 well plate with a cellulose membrane between the upper and lower chambers. HMVEC were starved of growth factors overnight, labeled with fluorescent calcein AM (50-100 nM), plated into a 96 well migration chamber (2.9×10^4/well) (Neuroprobe, Gaitherburg, Md.), and stimulated to migrate with VEGF (5 ng/mL). After 4 h, migrated cells were measured by fluorescence (Frevert C W, Wong V A, Goodman R B, Goodwin R, Martin T R. Rapid fluorescence-based measurement of neutrophil migration in vitro. J Immunol Methods. 1998 Apr. 1;213(1):41-52). In a second assay for cellular migration, a standard Boyden chamber was used (Polyerini, P. J., Bouck, N. P. & Rastinejad, F. Assay and purification of naturally occurring inhibitor of angiogenesis. Meth. Enzymol. 198, 440-450 (1991)). HMVEC cells were starved overnight in DME containing 0.1% bovine serum albumin (BSA) and harvested by scraping and resuspended in DME with 0.1% BSA at 1.5×10^6 cells per ml. Cells were added to the bottom of a 48-well, Boyden chamber. The chamber was assembled and inverted, and cells were allowed to attach for 2 hours at 37° C. to polycarbonate chemotaxis membranes (5 μm pore size) that had been soaked in 0.1% gelatin overnight and dried. The chamber was re-inverted, test substances, including activators were added to the wells of the upper chamber and the apparatus was incubated for 4 hours at 37° C. Growth factors were used, where indicated, at concentrations determined in preliminary experiments to give equivalent migration responses of about 100 cells migrated/high powered field (400×). […] Membranes were recovered, fixed and stained and the number of cells that had migrated to the upper chamber per 10 high power fields counted. Background migration to DME+0.1% BSA was subtracted and the data reported as the number of cells migrated per 10 high power fields (400×) or, when results from multiple experiments were combined, as the percent inhibition of migration compared to the positive growth factor control (Polyerini, P. J., Bouck, N. P. & Rastinejad, F. Assay and purification of naturally occurring inhibitor of angiogenesis. Meth. Enzymol. 198, 440-450 (1991)).

[2] = molecular target: GRP78 on the surface of human cells (EAHY, HMVEC, HT1080) (human, UniProt P11021 19-654); test: cell-based or functional assay
GRP78 on the surface of human cells (EAHY, HMVEC, HT1080), sequence (P11021 19-654): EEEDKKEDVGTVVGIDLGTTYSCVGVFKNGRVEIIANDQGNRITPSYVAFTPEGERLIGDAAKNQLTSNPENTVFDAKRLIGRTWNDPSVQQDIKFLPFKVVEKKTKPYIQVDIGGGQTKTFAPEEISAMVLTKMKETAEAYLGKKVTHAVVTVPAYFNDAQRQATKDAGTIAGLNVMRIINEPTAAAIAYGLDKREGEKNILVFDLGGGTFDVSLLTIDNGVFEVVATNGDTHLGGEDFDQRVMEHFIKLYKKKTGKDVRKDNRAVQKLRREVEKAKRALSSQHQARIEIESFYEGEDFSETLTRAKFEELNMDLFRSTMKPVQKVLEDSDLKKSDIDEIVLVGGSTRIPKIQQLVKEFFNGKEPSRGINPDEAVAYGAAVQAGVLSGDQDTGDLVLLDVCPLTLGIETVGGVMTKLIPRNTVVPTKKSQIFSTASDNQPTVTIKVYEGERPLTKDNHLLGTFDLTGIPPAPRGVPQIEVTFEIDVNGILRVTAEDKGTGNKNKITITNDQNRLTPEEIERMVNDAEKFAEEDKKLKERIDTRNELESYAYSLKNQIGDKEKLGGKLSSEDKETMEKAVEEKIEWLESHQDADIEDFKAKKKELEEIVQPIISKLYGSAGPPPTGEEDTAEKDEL

HMVEC, sequence (P11021 19-654): as above
T1 sequence (Q0VCX2 20-655): as the sequence (P11021 19-654) above, with I114V, G626S, D629E, T630A, E632D counted along it

Molecule: LLPDVETPSEED (listed as Homo sapiens)
- inhibition of I125rK5(dog) binding to GRP78 (GRP78 (bovine brain)): not
- competition of protein binding to the S-tag K5 column [1]: did not inhibit
- blocking of 3HK5 binding to endothelial cells (HMVECs): not

Molecule: CC(=O)N[C@@H](CC(C)C)C(=O)N[C@@H](Cc1ccc(O)cc1)C(=O)N[C@@H](CC(=O)O)C(=O)N[C@@H](Cc1ccc(O)cc1)C(N)=O [Ac-LYDY-NH2] (Ac-LYDY-NH2)
- IC50 (HMVEC): > 1000 nM

Molecule: Ac-MFGNGKGYRGKRATTVTGTP-NH2
- IC50 (HMVEC): > 1000 nM

Molecule: CC(C)C[C@H](NC(=O)[C@H](CCCCN)NC(=O)[C@H](CCCNC(=N)N)NC(=O)[C@@H]1CCCN1C(=O)CCCC[C@@H]1SC[C@@H]2NC(=O)N[C@@H]21)C(=O)N[C@@H](Cc1ccc(O)cc1)C(=O)N[C@@H](CC(=O)O)C(=O)N[C@@H](Cc1ccc(O)cc1)C(=O)O [Biotin-PRKLYDY] (Biotin-PRKLYDY-OH)
- inhibition of migration of activated endothelial cells (in words) (HMVEC): similarly active

Molecule: N-term-S-tag-Kringle 5: S-protein tagged rK5 used as probe for isolation of the cell surface receptor
- inhibition of migration of activated endothelial cells (in words) (HMVEC): similarly active

Molecule: KLYD (listed as Homo sapiens)
- inhibition of migration of activated endothelial cells (in words) (HMVEC): equally potent compared to rK5

Molecule: Ac-KLYDY-NH2 [Ac-KLYDY-NH2]
- inhibition of migration of activated endothelial cells (in words) (HMVEC): equally potent compared to rK5

Molecule: PRKLYDY (listed as Homo sapiens)
- inhibition of migration of activated endothelial cells (in words) (HMVEC): equally potent compared to rK5
- inhibition of I125rK5(dog) binding to GRP78 (GRP78 (bovine brain)): inhibited
- competition of protein binding to the S-tag K5 column [1]: competed
- blocking of 3HK5 binding to endothelial cells (HMVECs): blocked

Molecule: CC(=O)N[C@@H](CC(=O)O)C(=O)N[C@H](C(=O)N1CCC[C@H]1C(=O)N[C@@H](CCC(N)=O)C(N)=O)C(C)C [Ac-DVPQ-NH2] (Ac-DVPQ-NH2)
- IC50 (HMVEC): > 1000 nM

Molecule: Ac-VLLPDVETPSEED-NH2 [Ac-VLLPDVETPSEED-NH2]
- IC50 (HMVEC): > 1000 nM

Molecule: Ac-QDWAAQEPHRHSIFTPETNPRAGLEKNY-NH2
- IC50 (HMVEC): > 1000 nM

Molecule: Ac-DVPQ-NH2 [Ac-DVPQ-NH2]
- IC50, inhibition of VEGF stimulated HMVEC migration [2]: > 1000 nM

Molecule: Ac-KLYDY-NH2 [Ac-KLYDY-NH2]
- IC50, inhibition of VEGF stimulated HMVEC migration [2]: 0.1 nM

Molecule: Ac-QDWAAQEPHRHSIFTPETNPRAGLEKNY-NH2 [Ac-QDWAAQEPHRHSIFTPETNPRAGLEKNY-NH2]
- IC50, inhibition of VEGF stimulated HMVEC migration [2]: > 1000 nM

Molecule: Ac-RKLYDY-NH2 [Ac-RKLYDY-NH2]
- IC50, inhibition of VEGF stimulated HMVEC migration [2]: 0.12 nM

Molecule: Ac-RNPDGDVGGPW-NH2 [Ac-RNPDGDVGGPW-NH2]
- IC50, inhibition of VEGF stimulated HMVEC migration [2]: 0.5 nM

Molecule: Ac-YTTNPRKLYDY-NH2 [Ac-YTTNPRKLYDY-HN2]
- IC50, inhibition of VEGF stimulated HMVEC migration [2]: 0.2 nM

Molecule: Ac-MFGNGKGYRGKRATTVTGTP-NH2 [Ac-MFGNGKGYRGKRATTVTGTP-NH2]
- IC50, inhibition of VEGF stimulated HMVEC migration [2]: > 1000 nM

Molecule: Biotin-PRKLYDY [N-terminally biotinylated PRKLYDY peptide]
- IC50, inhibition of VEGF stimulated HMVEC migration [2]: 0.23 nM

Molecule: Ac-LYDY-NH2 [Ac-LYDY-NH2]
- IC50, inhibition of VEGF stimulated HMVEC migration [2]: > 1000 nM

B1: N-term-S-tag-Kringle 5 (ligand, human, UniProt P00747 481-560, looked up, not shown: small tags and cut ends)
chain: CMFGNGKGYRGKRATTVTGTPCQDWAAQEPHRHSIFTPETNPRAGLEKNYCRNPDGDVGGPWCYTTNPRKLYDYCDVPQC
- IC50, inhibition of VEGF stimulated HMVEC migration [2]: 0.2 nM

Molecule: Ac-VLLPDVETPSEED-NH2 [Ac-VLLPDVETPSEED-NH2]
- IC50, inhibition of VEGF stimulated HMVEC migration [2]: > 1000 nM

— patent US20050053993A1, “Uses of an endothelial cell receptor” (priority 2002, published 2005)
